The series concerns the molecule itself. As to the kind of experiment: SEC; Superdex 75 10/300 GL, 50 mM Tris-HCl pH 7.5, flow 0.5 mL/min; protein at 2 µg/µL, 150 to 300 µL; column calibrated with LMW Gel Filtration kit. Background: In gel filtration, larger molecules generally elute earlier.

This note sets out measurements from article PMC8122247, “Rational Design of Resveratrol O-methyltransferase for the Production of Pinostilbene” (International Journal of Molecular Sciences, 2021).

Residue numbers refer to the chain shown, from its start. Names and notes keep the numbering of the source.

B1: VvROMT variant W20A (enzyme, Vitis vinifera, UniProt B6VJS4 1-357, looked up)
chain: MDLANGVISAELLHAQAHVANHIFNFIKSMSLKCAIQLGIPDIIHNHGKPMTLPELVAKLPVHPKRSQCVYRLMRILVHSGFLAAQRVQQGKEEEGYVLTDASRLLLMDDSLSIRPLVLAMLDPILTKPWHYLSAWFQNDDPTPFHTAYERSFWDYAGHEPQLNNSFNEAMASDARLLTSVLLKEGQGVFAGLNSLVDVGGGTGKVAKAIANAFPHLNCTVLDLSHVVAGLQGSKNLNYFAGDMFEAIPPADAILLKWILHDWSNEECVKILKRCREAIPSKENGGKVIIIDMIMMKNQGDYKSTETQLFFDMTMMIFAPGRERDENEWEKLFLDAGFSHYKITPILGLRSLIEVYP
notes: resveratrol O-methyltransferase (VvROMT), Vitis vinifera, GenBank FM178870, with W20A; made by Gibson Assembly on pET25-GB1-ROMT; source: E. coli BL21 (DE3), purified (IMAC HisTrap FF, TEV cleavage, second IMAC); not shown: His tag (on GB1), N-terminal, cleaved; GB1, N-terminal, cleaved
As for B1, the stoichiometry N (in general, a count of units in the complex or per binding partner) was 2.

B2: VvROMT variant F24A (enzyme, Vitis vinifera, UniProt B6VJS4 1-357, looked up)
chain: B1 chain with A20W, F24A
notes: resveratrol O-methyltransferase (VvROMT), Vitis vinifera, GenBank FM178870, with F24A; made by Gibson Assembly on pET25-GB1-ROMT; source: E. coli BL21 (DE3), purified (IMAC HisTrap FF, TEV cleavage, second IMAC); not shown: His tag (on GB1), N-terminal, cleaved; GB1, N-terminal, cleaved
As to B2, the “stoichiometry N” value is 2.
